Experimental findings from patent US20150139990A1 (DAINIPPON SUMITOMO PHARMA, published 2015) are described below.

The target in one assay is T1, human CD81 mutant V135A (human, UniProt P60033 1-236, limits assumed).
T1 construct: as m30; not shown: C-terminal V5 and 6xHis tags
T1 sequence: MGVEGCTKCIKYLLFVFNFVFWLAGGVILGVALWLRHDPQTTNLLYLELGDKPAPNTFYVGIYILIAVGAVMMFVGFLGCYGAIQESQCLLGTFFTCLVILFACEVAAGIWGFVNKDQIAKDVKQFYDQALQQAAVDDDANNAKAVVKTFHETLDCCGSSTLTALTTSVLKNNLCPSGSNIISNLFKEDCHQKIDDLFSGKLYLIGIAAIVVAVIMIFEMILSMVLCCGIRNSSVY
The assay is described as follows: ELISA.

The target of a further assay is T2, human CD81 mutant T163A (human, UniProt P60033 1-236, limits assumed).
T2 construct: as m30; not shown: C-terminal V5 and 6xHis tags
T2 sequence: T1 sequence with A135V, T163A
The assay is described as follows: ELISA.

The target in assay [1] is T3, human CD81 on CD81-expressing cells (Jurkat E6.1, human PBMC, Ramos) (human, UniProt P60033 1-236).
T3 sequence: T1 sequence with A135V
The assay is described as follows: cell-based or functional assay.

In another assay the target is T4, human CD81 mutant G158A (human, UniProt P60033 1-236, limits assumed).
T4 construct: as m30; not shown: C-terminal V5 and 6xHis tags
T4 sequence: T1 sequence with A135V, G158A
Briefly: ELISA.

A further assay deals with T5, human CD81 mutant H151R (human, UniProt P60033 1-236, limits assumed).
T5 construct: as m30; also called H151B; not shown: C-terminal V5 and 6xHis tags
T5 sequence: T1 sequence with A135V, H151R
Briefly: ELISA.

The target in another assay is T6, human CD81 mutant A164V (human, UniProt P60033 1-236, limits assumed).
T6 construct: as m30; not shown: C-terminal V5 and 6xHis tags
T6 sequence: T1 sequence with A135V, A164V
The assay is described as follows: ELISA.

In another assay the target is T7, human CD81 mutant V169L (human, UniProt P60033 1-236, limits assumed).
T7 construct: as m30; not shown: C-terminal V5 and 6xHis tags
T7 sequence: T1 sequence with A135V, V169L
Briefly: ELISA.

The next assay has as its target T8, human CD81 mutant S168T (human, UniProt P60033 1-236, limits assumed).
T8 construct: as m30; not shown: C-terminal V5 and 6xHis tags
T8 sequence: T1 sequence with A135V, S168T
The assay is described as follows: ELISA.

A further assay deals with T9, human CD81 mutant D137E (human, UniProt P60033 1-236, limits assumed).
T9 construct: as m30; not shown: C-terminal V5 and 6xHis tags
T9 sequence: T1 sequence with A135V, D137E
Briefly: ELISA.

A further assay addresses T10, human CD81 mutant V135L (human, UniProt P60033 1-236, limits assumed).
T10 construct: as m30; not shown: C-terminal V5 and 6xHis tags
T10 sequence: T1 sequence with A135L
The assay is described as follows: ELISA.

Numbering of substitutions follows the chain as printed. Numbers in names are those of the source.

B1: 002-A07 S115A (antibody, human IgG4 S228P, lambda, V domains shown)
VH: EVQLLESGGGLVQPGGSLRLSCAASGFTFSSNYMSWVRQAPGKGLEWVSYISSSSTYTDYADSVKGRFTISRDNSKNTLYLQMNSLRAEDTAVYYCARYSYGRDNFDYWGQGTLVTVSS
VL: QSVLTQPPSASGTPGQRVTISCTGSTSNIGAGYDTHWYQQLPGTAPKLLIYGNSNRPSGVPDRFSGSKSGTSASLAISGLRSEDEADYYCQSYDTNLAVWVFGGGTKLTVLG
notes: IgG4 S228P; glycosylation site mutant of 002-A07 VL
In the case of B1, the relative binding affinity with human CD81 mutant V135A, with human CD81 mutant T163A, with human CD81 mutant G158A, with human CD81 mutant H151R, in the assay with human CD81 mutant A164V and with human CD81 mutant V169L was under 20% each time. The relative binding affinity in the assay with human CD81 mutant S168T, with human CD81 mutant D137E and in the assay with human CD81 mutant V135L was under 20% in each case. For the same molecule, the “Jurkat chemotaxis (% of control IgG4) at 0.001 µg/mL” value in [1] turned out to be 82%. In assay [1], the “Jurkat chemotaxis (% of control IgG4) at 0.01 µg/mL” value was found to be 78%. Moreover, the “Jurkat chemotaxis (% of control IgG4) at 0.1 µg/mL” value in [1] was found to be 32%. For the same molecule, the “Jurkat chemotaxis (% of control IgG4) at 1 µg/mL” value in assay [1] was -4%. In addition, the “Jurkat chemotaxis (% of control IgG4) at 10 µg/mL” value in [1] is -9%.

B2: 002-A07 S115G (antibody, human IgG4 S228P, lambda, V domains shown)
VH: B1 VH
VL: B1 VL with A98G
notes: as for B1
B2: the relative binding affinity with human CD81 mutant V135A, in the assay with human CD81 mutant T163A, with human CD81 mutant G158A, with human CD81 mutant H151R, with human CD81 mutant A164V and with human CD81 mutant V169L was under 20% throughout. The relative binding affinity in the assay with human CD81 mutant S168T, with human CD81 mutant D137E and with human CD81 mutant V135L was under 20% each time. The “Jurkat chemotaxis (% of control IgG4) at 0.001 µg/mL” value in assay [1] came to 84%. In [1], the “Jurkat chemotaxis (% of control IgG4) at 0.01 µg/mL” value was 74%. Moreover, in [1], the “Jurkat chemotaxis (% of control IgG4) at 0.1 µg/mL” value came out at 13%. Further, the “Jurkat chemotaxis (% of control IgG4) at 1 µg/mL” value in [1] is -9%. Also, the “Jurkat chemotaxis (% of control IgG4) at 10 µg/mL” value in assay [1] is -3%.
